Values joined by “and” are separate entries in the source; they are usually repeats but may differ in a detail not shown here. Equal values may be shown once. Read-outs that look alike come from different tables or passages of the source. Bridge positions count the residues as written; N and C are the ends. Square brackets hold non-standard residues; d marks the D form. Trp(1-Me) = Cn1cc(C[C@H](N)C(=O)O)c2ccccc21
Assays:
Assay in all cases: cell-based or functional assay
[1] = target: T1, human complement protein C3 (human, UniProt P01024 23-1663)
T1 sequence (P01024 23-1663 limits assumed): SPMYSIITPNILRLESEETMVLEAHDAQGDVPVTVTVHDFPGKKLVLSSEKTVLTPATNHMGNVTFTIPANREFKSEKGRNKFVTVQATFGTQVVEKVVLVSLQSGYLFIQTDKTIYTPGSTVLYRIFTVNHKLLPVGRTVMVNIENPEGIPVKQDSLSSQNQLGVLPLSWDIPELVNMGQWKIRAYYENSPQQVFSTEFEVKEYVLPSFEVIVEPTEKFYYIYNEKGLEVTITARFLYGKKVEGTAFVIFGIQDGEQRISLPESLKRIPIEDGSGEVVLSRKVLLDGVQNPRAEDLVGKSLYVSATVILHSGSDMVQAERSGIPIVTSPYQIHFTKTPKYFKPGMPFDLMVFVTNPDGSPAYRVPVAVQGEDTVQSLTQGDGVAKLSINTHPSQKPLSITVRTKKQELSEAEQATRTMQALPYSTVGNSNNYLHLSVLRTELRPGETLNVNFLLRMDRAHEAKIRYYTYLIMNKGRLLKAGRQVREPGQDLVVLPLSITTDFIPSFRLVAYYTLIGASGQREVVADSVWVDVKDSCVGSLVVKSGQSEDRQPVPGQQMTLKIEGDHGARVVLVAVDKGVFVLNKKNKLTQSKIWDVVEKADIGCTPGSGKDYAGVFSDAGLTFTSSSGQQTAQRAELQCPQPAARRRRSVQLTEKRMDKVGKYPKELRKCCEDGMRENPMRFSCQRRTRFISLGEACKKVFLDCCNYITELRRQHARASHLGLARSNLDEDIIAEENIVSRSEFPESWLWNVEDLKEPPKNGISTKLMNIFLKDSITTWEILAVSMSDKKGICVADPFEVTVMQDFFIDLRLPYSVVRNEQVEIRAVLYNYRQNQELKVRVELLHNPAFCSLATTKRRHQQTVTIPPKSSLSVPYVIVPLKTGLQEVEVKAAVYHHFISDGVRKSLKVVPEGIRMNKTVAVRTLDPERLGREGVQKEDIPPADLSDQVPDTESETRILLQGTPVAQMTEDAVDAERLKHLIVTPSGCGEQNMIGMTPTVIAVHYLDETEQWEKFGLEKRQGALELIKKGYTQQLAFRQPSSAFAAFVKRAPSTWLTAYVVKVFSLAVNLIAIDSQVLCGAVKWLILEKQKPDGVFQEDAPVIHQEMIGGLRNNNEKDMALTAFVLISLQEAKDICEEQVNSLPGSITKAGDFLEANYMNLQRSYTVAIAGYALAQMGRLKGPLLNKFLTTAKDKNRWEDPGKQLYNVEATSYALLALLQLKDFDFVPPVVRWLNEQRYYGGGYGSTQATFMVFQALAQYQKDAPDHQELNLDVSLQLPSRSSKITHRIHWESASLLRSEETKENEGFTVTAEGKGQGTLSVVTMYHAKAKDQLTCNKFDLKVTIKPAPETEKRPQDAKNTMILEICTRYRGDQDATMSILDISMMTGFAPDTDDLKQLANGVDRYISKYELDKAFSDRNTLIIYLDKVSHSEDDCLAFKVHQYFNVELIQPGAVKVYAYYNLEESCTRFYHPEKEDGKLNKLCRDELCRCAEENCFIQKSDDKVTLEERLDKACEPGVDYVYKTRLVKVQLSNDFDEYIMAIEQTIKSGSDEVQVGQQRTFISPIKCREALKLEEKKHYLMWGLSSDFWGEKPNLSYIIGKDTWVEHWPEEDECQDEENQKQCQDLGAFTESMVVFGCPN

[2] = target: T1, human complement protein C3; remark: listed apart in the source
[3] = target: T1, human complement protein C3; remark: listed apart in the source
[4] = target: T1, human complement protein C3; remark: listed apart in the source

Row | Binder | IC50 (assay not named in Table 7; preliminary C3b ELISA by paragraph 235) [1] | C3b ELISA IC50 [2] | C5b-9 ELISA IC50 [2] | Lysis IC50 [2] | RPE cell assay medium C5b-9 ELISA, % of positive control (peptide at 1 µM) [3] | RPE cell-based assay, confocal imaging of deposit-associated C5b-9, % of positive control (peptide at 1 µM) [3] | C3b ELISA IC50 [4] | C5b-9 ELISA IC50 [4] | Hemolytic assay IC50 [4]
1 | Ac-RSRCV[Trp(1-Me)]QDWGAHRCT-NH2 (disulfide 4-14; SMILES CC(=O)N[C@@H](CCCNC(=N)N)C(=O)N[C@@H](CO)C(=O)N[C@@H](CCCNC(=N)N)C(=O)N[C@H]1CSSC[C@@H](C(=O)N[C@H](C(N)=O)[C@@H](C)O)NC(=O)[C@H](CCCNC(=N)N)NC(=O)[C@H](Cc2c[nH]cn2)NC(=O)[C@H](C)NC(=O)CNC(=O)[C@H](Cc2c[nH]c3ccccc23)NC(=O)[C@H](CC(=O)O)NC(=O)[C@H](CCC(N)=O)NC(=O)[C@H](Cc2cn(C)c3ccccc23)NC(=O)[C@H](C(C)C)NC1=O) [Peptide VII, Ac-RS-RCVme…-NH2] | 470000 nM |  |  |  |  |  |  |  | 
2 | Ac-NNLCVWQDWGAHRCT-NH2 (disulfide 4-14; SMILES CC(=O)N[C@@H](CC(N)=O)C(=O)N[C@@H](CC(N)=O)C(=O)N[C@@H](CC(C)C)C(=O)N[C@H]1CSSC[C@@H](C(=O)N[C@H](C(N)=O)[C@@H](C)O)NC(=O)[C@H](CCCNC(=N)N)NC(=O)[C@H](Cc2c[nH]cn2)NC(=O)[C@H](C)NC(=O)CNC(=O)[C@H](Cc2c[nH]c3ccccc23)NC(=O)[C@H](CC(=O)O)NC(=O)[C@H](CCC(N)=O)NC(=O)[C@H](Cc2c[nH]c3ccccc23)NC(=O)[C@H](C(C)C)NC1=O) [Peptide 3.2, Ac-NN-LCVWQDWGAHRCT-NH2] |  | 600 nM | 500 nM | 300 nM |  |  |  |  | 
3 | Ac-RCVWQDWGAHRCT-NH2 (disulfide 2-12; SMILES CC(=O)N[C@@H](CCCNC(=N)N)C(=O)N[C@H]1CSSC[C@@H](C(=O)N[C@H](C(N)=O)[C@@H](C)O)NC(=O)[C@H](CCCNC(=N)N)NC(=O)[C@H](Cc2c[nH]cn2)NC(=O)[C@H](C)NC(=O)CNC(=O)[C@H](Cc2c[nH]c3ccccc23)NC(=O)[C@H](CC(=O)O)NC(=O)[C@H](CCC(N)=O)NC(=O)[C@H](Cc2c[nH]c3ccccc23)NC(=O)[C@H](C(C)C)NC1=O) [Peptide I, Ac-RCVWQDWGAHRCT-NH2] | 250000 nM | 2600 nM and 1100 nM | 2000 nM and 1000 nM | 3300 nM and 1200 nM | 61.4 % of positive control | 55.3 % of positive control | 2580 nM | 2020 nM | 3330 nM
4 | Ac-WWRCVWQDWGAHRCT-NH2 (disulfide 4-14; SMILES CC(=O)N[C@@H](Cc1c[nH]c2ccccc12)C(=O)N[C@@H](Cc1c[nH]c2ccccc12)C(=O)N[C@@H](CCCNC(=N)N)C(=O)N[C@H]1CSSC[C@@H](C(=O)N[C@H](C(N)=O)[C@@H](C)O)NC(=O)[C@H](CCCNC(=N)N)NC(=O)[C@H](Cc2c[nH]cn2)NC(=O)[C@H](C)NC(=O)CNC(=O)[C@H](Cc2c[nH]c3ccccc23)NC(=O)[C@H](CC(=O)O)NC(=O)[C@H](CCC(N)=O)NC(=O)[C@H](Cc2c[nH]c3ccccc23)NC(=O)[C@H](C(C)C)NC1=O) [Peptide V, Ac-WW-RCVWQDWGAHRCT-NH2] | 460000 nM |  |  |  |  |  |  |  | 
5 | Ac-RSICVWQDWGAHRCT-NH2 (disulfide 4-14) [Peptide 3.4, Ac-RS-ICVWQDWGAHRCT-NH2] |  | 700 nM | 600 nM | 300 nM |  |  |  |  | 
6 | Ac-ERICVWQDWGAHRCT-NH2 (disulfide 4-14; SMILES CC[C@H](C)[C@H](NC(=O)[C@H](CCCNC(=N)N)NC(=O)[C@H](CCC(=O)O)NC(C)=O)C(=O)N[C@H]1CSSC[C@@H](C(=O)N[C@H](C(N)=O)[C@@H](C)O)NC(=O)[C@H](CCCNC(=N)N)NC(=O)[C@H](Cc2c[nH]cn2)NC(=O)[C@H](C)NC(=O)CNC(=O)[C@H](Cc2c[nH]c3ccccc23)NC(=O)[C@H](CC(=O)O)NC(=O)[C@H](CCC(N)=O)NC(=O)[C@H](Cc2c[nH]c3ccccc23)NC(=O)[C@H](C(C)C)NC1=O) [Peptide 3.1, Ac-ER-ICVWQDWGAHRCT-NH2] |  | 900 nM | 500 nM | 900 nM |  |  |  |  | 
7 | Ac-NRLCVWQDWGAHRCT-NH2 (disulfide 4-14; SMILES CC(=O)N[C@@H](CC(N)=O)C(=O)N[C@@H](CCCNC(=N)N)C(=O)N[C@@H](CC(C)C)C(=O)N[C@H]1CSSC[C@@H](C(=O)N[C@H](C(N)=O)[C@@H](C)O)NC(=O)[C@H](CCCNC(=N)N)NC(=O)[C@H](Cc2c[nH]cn2)NC(=O)[C@H](C)NC(=O)CNC(=O)[C@H](Cc2c[nH]c3ccccc23)NC(=O)[C@H](CC(=O)O)NC(=O)[C@H](CCC(N)=O)NC(=O)[C@H](Cc2c[nH]c3ccccc23)NC(=O)[C@H](C(C)C)NC1=O) [Peptide 3.3, Ac-NR-LCVWQDWGAHRCT-NH2] |  | 600 nM | 500 nM | 300 nM |  |  |  |  | 
8 | Ac-SSICVWQDWGAHRCT-NH2 (disulfide 4-14; SMILES CC[C@H](C)[C@H](NC(=O)[C@H](CO)NC(=O)[C@H](CO)NC(C)=O)C(=O)N[C@H]1CSSC[C@@H](C(=O)N[C@H](C(N)=O)[C@@H](C)O)NC(=O)[C@H](CCCNC(=N)N)NC(=O)[C@H](Cc2c[nH]cn2)NC(=O)[C@H](C)NC(=O)CNC(=O)[C@H](Cc2c[nH]c3ccccc23)NC(=O)[C@H](CC(=O)O)NC(=O)[C@H](CCC(N)=O)NC(=O)[C@H](Cc2c[nH]c3ccccc23)NC(=O)[C@H](C(C)C)NC1=O) [Peptide IV, Ac-SS-ICVWQDWGAHRCT-NH2] | 330000 nM |  |  |  |  |  |  |  | 
9 | Ac-SSRCV[Trp(1-Me)]QDWGAHRCT-NH2 (disulfide 4-14; SMILES CC(=O)N[C@@H](CO)C(=O)N[C@@H](CO)C(=O)N[C@@H](CCCNC(=N)N)C(=O)N[C@H]1CSSC[C@@H](C(=O)N[C@H](C(N)=O)[C@@H](C)O)NC(=O)[C@H](CCCNC(=N)N)NC(=O)[C@H](Cc2c[nH]cn2)NC(=O)[C@H](C)NC(=O)CNC(=O)[C@H](Cc2c[nH]c3ccccc23)NC(=O)[C@H](CC(=O)O)NC(=O)[C@H](CCC(N)=O)NC(=O)[C@H](Cc2cn(C)c3ccccc23)NC(=O)[C@H](C(C)C)NC1=O) [Peptide VIII, Ac-SS-RCVme…-NH2] | 420000 nM |  |  |  |  |  |  |  | 
10 | Ac-RCV[Trp(1-Me)]QDWGAHRCT-NH2 (disulfide 2-12; SMILES CC(=O)N[C@@H](CCCNC(=N)N)C(=O)N[C@H]1CSSC[C@@H](C(=O)N[C@H](C(N)=O)[C@@H](C)O)NC(=O)[C@H](CCCNC(=N)N)NC(=O)[C@H](Cc2c[nH]cn2)NC(=O)[C@H](C)NC(=O)CNC(=O)[C@H](Cc2c[nH]c3ccccc23)NC(=O)[C@H](CC(=O)O)NC(=O)[C@H](CCC(N)=O)NC(=O)[C@H](Cc2cn(C)c3ccccc23)NC(=O)[C@H](C(C)C)NC1=O) [Peptide III, Ac-RCVme…-NH2] | 300000 nM | 1400 nM and 500 nM | 1100 nM and 600 nM |  | 50 % of positive control | 20 % of positive control | 1420 nM | 1070 nM | 2250 nM
11 | Ac-[Trp(1-Me)]CVWQDWGAHRCT-NH2 (disulfide 2-12) [Peptide II, Ac-me…-NH2] | 240000 nM |  |  |  |  |  |  |  | 
12 | RSICVXQDWGAHRCT (N-terminal acetyl; C-terminal amide; disulfide bridge Cys2-Cys12; meW (Trp methylated at the indole amide position) at position 4 (filing's numbering from -1; 6th residue of the chain)) [Peptide VI, Ac-RS-ICVme…-NH2] | 620000 nM | 1700 nM and 600 nM | 1100 nM and 600 nM |  | 44.6 % of positive control | 14.8 % of positive control | 1740 nM | 1130 nM | 2230 nM
